Results on 4 molecules are retold here after PMC11000523 (Nature, 2023).

For experiment [1], the target named is TNRC18 BAH domain, 2785-2968 (UniProt O15417). Briefly: isothermal titration calorimetry. The settings on record: reference: H3(1–22)K9me3 peptide; sites T11. For orientation: ITC needs no label: the signal is the heat of the interaction.
Experiment [2] deals with nucleosome core particle carrying a methyllysine analogue of histone H3K9 (H3Kc9me3) (Xenopus laevis). Briefly: BLI.
For experiment [3], the target named is BAH domain of human TNRC18 (amino acids 2785–2968) (human) (UniProt O15417). Briefly: ITC.
Sequence of BAH domain of human TNRC18 (amino acids 2785–2968) (human) (O15417 2785-2968): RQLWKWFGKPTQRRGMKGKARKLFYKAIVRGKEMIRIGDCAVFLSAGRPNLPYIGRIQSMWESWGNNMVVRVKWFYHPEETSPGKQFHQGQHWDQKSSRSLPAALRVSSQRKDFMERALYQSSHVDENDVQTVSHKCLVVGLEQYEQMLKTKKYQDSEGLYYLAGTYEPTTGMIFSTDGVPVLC
Experiment [4] deals with T1, amino acids 718–792 of TNRC18 (Sin3-interaction motif of TNRC18) (human, UniProt O15417 718-792).
T1 sequence (peptide, looked up): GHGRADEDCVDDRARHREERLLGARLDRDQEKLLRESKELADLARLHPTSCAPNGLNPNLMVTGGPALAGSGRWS
Briefly: ITC.

In the case of “histone H3 1-22 (from UniProt P68431) H3(1–22)K9me3 T11ph peptide”, the “binding against the reference” value in experiment [1] is “same”.

On to “BAH domain of human TNRC18 (amino acids 2785–2968) (from UniProt O15417 2785-2968) (domain or fragment)”, for which the Kd (as a rule, a measure of binding affinity in units of concentration) in experiment [2] was 0.0188 µM. That is a double-digit nanomolar value.

Turning to H3K9me2 peptide, the Kd in experiment [3] was found to be 252 µM.

B1: PAH domain of Sin3 (domain or fragment)
chain: QRLKVEDALSYLDQVKLQFGSQPQVYNDFLDIMKEFKSQSIDTPGVISRVSQLFKGHPDLIMGFNTFLPPG
As to B1, binding in experiment [4] was put at a Kd of 104 µM.
